According to patent publication US20220064291A1 (Merck Sharp & Dohme, published 2022):

B1: BTN3A1-Fc (recombinant human BTN3A1 Fc-chimera, HEK293-expressed, R&D Systems) (Fc fusion, not shown: a dimerising Fc or GST)
chain: not shown

Legend:
[1] = target: anti-BTN3A antibody (clone 20.1, Biolegend, catalog #342702); experiment: cell-based or functional assay
[2] = target: T1, BTN3A2-Fc (recombinant human BTN3A2 Fc-chimera, HEK293-expressed, R&D Systems) (human, UniProt P78410 30-248); experiment: Octet isoform binding screen
T1 construct: Bought Fc-chimera; Biotinylated for the yeast display selections; not shown: Fc part of the bought Fc-chimera
T1 sequence (P78410 30-248, change not shown): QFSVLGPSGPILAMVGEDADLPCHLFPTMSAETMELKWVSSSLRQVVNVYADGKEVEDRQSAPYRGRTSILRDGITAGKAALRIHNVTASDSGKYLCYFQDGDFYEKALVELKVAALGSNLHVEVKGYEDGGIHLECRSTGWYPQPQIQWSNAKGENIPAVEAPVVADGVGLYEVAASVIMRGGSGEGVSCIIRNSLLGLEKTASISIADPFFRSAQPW

[3] = target: T2, BTN3A3-Fc (recombinant human BTN3A3 Fc-chimera, HEK293-expressed, R&D Systems) (human, UniProt O00478 30-248); experiment: Octet isoform binding screen
T2 construct: Bought Fc-chimera; Biotinylated for the yeast display selections; not shown: Fc part of the bought Fc-chimera
T2 sequence (O00478 30-248, change not shown): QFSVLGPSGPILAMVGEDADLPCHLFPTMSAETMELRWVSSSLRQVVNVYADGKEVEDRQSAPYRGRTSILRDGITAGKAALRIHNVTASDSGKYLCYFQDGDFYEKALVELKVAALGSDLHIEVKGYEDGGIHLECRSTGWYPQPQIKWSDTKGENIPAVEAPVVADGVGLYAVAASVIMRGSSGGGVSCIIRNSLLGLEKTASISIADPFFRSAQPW

[4] = target: T3, BTN2A2-Fc (recombinant human BTN2A2 Fc-chimera, HEK293-expressed, R&D Systems) (human, UniProt Q8WVV5 33-265); experiment: Octet isoform binding screen
T3 construct: Bought Fc-chimera; Biotinylated for the yeast display selections; not shown: Fc part of the bought Fc-chimera
T3 sequence (looked up): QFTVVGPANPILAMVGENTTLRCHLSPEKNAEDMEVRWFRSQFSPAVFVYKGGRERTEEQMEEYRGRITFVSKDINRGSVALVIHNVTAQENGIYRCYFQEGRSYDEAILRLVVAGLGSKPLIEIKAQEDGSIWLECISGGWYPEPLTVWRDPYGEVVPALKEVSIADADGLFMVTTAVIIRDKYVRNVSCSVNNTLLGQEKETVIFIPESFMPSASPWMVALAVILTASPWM

[5] = target: B1; experiment: binding affinity, method not stated (Octet named in text)
[6] = target: T1, BTN3A2-Fc (recombinant human BTN3A2 …); experiment: as above
[7] = target: T2, BTN3A3-Fc (recombinant human BTN3A3 …); experiment: as above

| Binder | IC50 (read off the curve): inhibition of 20.1-mediated reactivation of latent HIV (luciferase RLU) [1] [µg/mL] | binding result [2] | binding result [3] | binding result [4] | Kd [5] [nM] | Kd [6] [nM] | Kd [7] [nM] |
| --- | --- | --- | --- | --- | --- | --- | --- |
| B1 | ~0.2 | – | – | – | – | – | – |
| Antibody 1F (antibody, IgG1, V domains shown, isotype hIgG1-297A (IgG1 N297A); kappa germline VK3-20.0) VH: QVQLQESGPGLVKPSQTLSLTCTVSGGSISSGGYYWSWIRQHPGKGLEWIGSIYYSGSTYYNPSLKSRVTISVDTSKNQFSLKLSSVTAADTAVYYCARLHSSQSSSTYWGQGTLVTVSS VL: not shown | – | no binding | no binding | no binding | 1.53 | – | – |
| Antibody 1G (antibody, IgG1, V domains shown, isotype hIgG1-297A (IgG1 N297A); kappa germline VK3-15.10) VH: QVQLVQSGAEVKKPGASVKVSCKASGYTFTSYGISWVRQAPGQGLEWMGWISAYNGNTNYAQKLQGRVTMTTDTSTSTAYMELRSLRSDDTAVYYCARLGATVAYFDLWGRGTLVTVSS VL: EIVLTQSPATLSVSPGERATLSCRASQSVSSNLAWYQQKPGQAPRLLIYGASTRATGIPARFSGSGSGTEFTLTISSLQSEDFAVYYCQQDVYWPFTFGGGTKVEIK | – | – | – | no binding | 0.974 | 2.71 | 1.13 |
| Antibody 2A (antibody, IgG1, V domains shown, isotype hIgG1-297A (IgG1 N297A); kappa germline VK3-15.1) VH: QVQLVQSGAEVKKPGASVKVSCKASGYTFTSYYIHWVRQAPGQGLEWMGIINPSGGSTSYAQKFQGRVTMTRDTSTSTVYMELSSLRSEDTAVYYCARATWEALHYWGQGTLVTVSS VL: EIVMTQSPATLSVSPGERATLSCRASQSVGSNLAWYQQKPGQAPRLLIYGASTRATGIPARFSGSGSGTEFTLTISSLQSEDFAVYYCQQYYAWPRTFGGGTKVEIK | – | no binding | – | no binding | 4.38 | – | 8.52 |
| Antibody 2L (antibody, IgG1, V domains shown, isotype hIgG1-297A (IgG1 N297A); kappa germline VK1-12.7) VH: not shown VL: DIQMTQSPSSVSASVGDRVTITCRASQGISSWLAWYQQKPGKAPKLLIYAASNLQSGVPSRFSGSGSGTDFTLTISSLQPEDFATYYCQQGNDLPITFGGGTKVEIK | – | no binding | no binding | no binding | 3.94 | – | – |
| Antibody 3A (antibody, IgG1, V domains shown, isotype hIgG1-297A (IgG1 N297A); kappa germline VK1-05.6) VH: QVQLVQSGAEVKKPGASVKVSCKASGYTFTSYYMHWVRQAPGQGLEWMGIINPGGGSTSYAQKFQGRVTMTRDTSTSTVYMELSSLRSEDTAVYYCARDAGHDYGDMAYWGQGTLVTVSS VL: DIQMTQSPSTLSASVGDRVTITCRASQSISSWLAWYQQKPGKAPKLLIYKASSLESGVPSRFSGSGSGTEFTLTISSLQPDDFATYYCQQYRSFPTFGGGTKVEIK | – | no binding | – | no binding | 2.76 | – | 1.4 |
| Antibody 3B (antibody, IgG1, V domains shown, isotype hIgG1-297A (IgG1 N297A); kappa germline VK3-11.0) VH: QVQLVQSGAEVKKPGASVKVSCKASGYTFTSYYMHWVRQAPGQGLEWMGIINPSGGSTSYAQKFQGRVTMTRDTSTSTVYMELSSLRSEDTAVYYCARPSGDYSGYDALDVWGQGTMVTVSS VL: EIVLTQSPATLSLSPGERATLSCRASQSVSSYLAWYQQKPGQAPRLLIYDASNRATGIPARFSGSGSGTDFTLTISSLEPEDFAVYYCQQDPYWPITFGGGTKVEIK | – | – | – | no binding | 2.1 | 4.57 | 2.08 |
